Data on seven molecules can be found in patent publication US20230272056A1 (Merck Sharp & Dohme, published 2023).

To fix the notation:
B1: 20E6 Fab (80BGJ/85BIT) (Fab, V domains shown)
VH: EVQLVQSGAEVKKPGASVKVSCKASGYTFTSYWMHWVRQAPGQGLEWMGRIDPQSGGIKYAQKFQGRATLTVDTSTSTAYMELSRLRSDDTAVYYCARWDYGGYFDVWGQGTLVTVSS
VL: DIQMTQSPSSLSASVGDRVTITCRASQDITNYLNWYQQKPGKAVKLLIYYTSRLHSGVPSRFSGSGSGTDYTLTISSLQPEDFATYFCQQGDTLPWTFGQGTKLEIKR
notes: also called 20E6 (80BGJ); 20E6 (85BIT)
B2: 67BLH (Fab, V domains shown)
VH: B1 VH with W33D, W99Y, Y101H
VL: DIQMTQSPSSLSASVGDRVTITCRASQDIYNYLNWYQQKPGKAVKLLIYYTSYLETGVPSRFSGSGSGTDYTLTISSLQPEDFATYFCQQGDTLPWTFGQGTKLEIK
notes: also called 19BLM Fab
B3: 63BLH (Fab, V domains shown)
VH: B1 VH with W33D
VL: B2 VL with Y53R
notes: also called 15BLM Fab; 015BLM Fab
B4: 60BLH (Fab, V domains shown)
VH: B1 VH with W33D, I58V
VL: B2 VL with Y53V, T93E
notes: also called 12BLM Fab
B5: VH W33Y/VL R53Y (91BJM) (Fab, V domains shown)
VH: B1 VH with W33Y
VL: B1 VL with R53Y
notes: also called VH33/VL53
B6: VH W33Y/VL T30Y (90BJM) (Fab, V domains shown)
VH: B1 VH with W33Y
VL: B1 VL with T30Y
notes: also called VH33/VL30
B7: VH W33Y/VL T93Y (92BJM) (Fab, V domains shown)
VH: B1 VH with W33Y
VL: B1 VL with T93Y
notes: also called VH33/VL93

Numbering of substitutions follows the chain as printed. Names may count otherwise. “And” between values parts separate entries of the source, which are not always exact repeats. Equal entries are not always repeated.

For one assay, the target named is T1, human LAP-TGFB1 Fc fusion (human).
T1 construct: also called human LAP-TGFβ1-Fc; human LAP-TGFβ-Fc isoform 1
T1 sequence (chain, as listed by the source limits assumed): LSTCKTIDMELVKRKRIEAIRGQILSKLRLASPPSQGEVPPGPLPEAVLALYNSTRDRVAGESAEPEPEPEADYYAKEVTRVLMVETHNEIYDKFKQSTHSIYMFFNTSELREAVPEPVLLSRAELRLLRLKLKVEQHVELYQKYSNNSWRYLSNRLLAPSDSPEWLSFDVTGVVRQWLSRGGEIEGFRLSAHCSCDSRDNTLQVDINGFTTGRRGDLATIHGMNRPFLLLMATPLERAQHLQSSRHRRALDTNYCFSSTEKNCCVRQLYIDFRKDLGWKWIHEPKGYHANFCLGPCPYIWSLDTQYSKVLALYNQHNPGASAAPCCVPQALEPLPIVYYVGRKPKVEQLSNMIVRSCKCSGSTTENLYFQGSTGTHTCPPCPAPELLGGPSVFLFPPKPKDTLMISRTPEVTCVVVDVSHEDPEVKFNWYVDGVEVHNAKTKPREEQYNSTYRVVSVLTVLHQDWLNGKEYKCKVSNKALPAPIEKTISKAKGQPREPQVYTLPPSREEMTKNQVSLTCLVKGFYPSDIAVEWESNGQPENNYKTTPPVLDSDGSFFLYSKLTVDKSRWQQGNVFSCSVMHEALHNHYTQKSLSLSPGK
Briefly: SPR. For orientation: In SPR one partner is held on a chip, and binding of the other changes the refractive index at the surface.
As for B1, the “Fold change in KD from pH 7.4 to pH 6” value turned out to be 1.8 fold.

Take B2: the “Fold change in KD from pH 7.4 to pH 6” value stood at 1.7 fold.

For B3, the “Fold change in KD from pH 7.4 to pH 6” value amounted to 1.2 fold.

As to B4, the “Fold change in KD from pH 7.4 to pH 6” value was determined as 2.8 fold.

Another assay deals with T1, human LAP-TGFB1 Fc fusion. Description: SPR pH 7.4, antigen-Fc captured, Fab analyte.
Turning to B1, the Kd – broadly, a measure of binding affinity in units of concentration – was determined as 58.5 nM; the koff – broadly, the first-order rate constant of dissociation – is 0.0769 s⁻¹; the kon (commonly the rate constant with which the complex forms) was 1.32e+06 M⁻¹ s⁻¹.

B2 gave a Kd of 0.961 nM, a koff of 0.00476 s⁻¹ and a kon of 4.95e+06 M⁻¹ s⁻¹.

B3 gave a Kd of 0.297 nM, a koff of 0.00198 s⁻¹ and a kon of 6.79e+06 M⁻¹ s⁻¹.

As for B4, the Kd stood at 0.024 nM, the koff amounted to 0.000186 s⁻¹ and the kon was 7.91e+06 M⁻¹ s⁻¹.

In another assay the target is T2, human LAP-TGFB3 Fc fusion (human).
T2 construct: also called human LAP-TGFβ3; LAP-TGFβ isoform 3
T2 sequence (chain, as listed by the source limits assumed): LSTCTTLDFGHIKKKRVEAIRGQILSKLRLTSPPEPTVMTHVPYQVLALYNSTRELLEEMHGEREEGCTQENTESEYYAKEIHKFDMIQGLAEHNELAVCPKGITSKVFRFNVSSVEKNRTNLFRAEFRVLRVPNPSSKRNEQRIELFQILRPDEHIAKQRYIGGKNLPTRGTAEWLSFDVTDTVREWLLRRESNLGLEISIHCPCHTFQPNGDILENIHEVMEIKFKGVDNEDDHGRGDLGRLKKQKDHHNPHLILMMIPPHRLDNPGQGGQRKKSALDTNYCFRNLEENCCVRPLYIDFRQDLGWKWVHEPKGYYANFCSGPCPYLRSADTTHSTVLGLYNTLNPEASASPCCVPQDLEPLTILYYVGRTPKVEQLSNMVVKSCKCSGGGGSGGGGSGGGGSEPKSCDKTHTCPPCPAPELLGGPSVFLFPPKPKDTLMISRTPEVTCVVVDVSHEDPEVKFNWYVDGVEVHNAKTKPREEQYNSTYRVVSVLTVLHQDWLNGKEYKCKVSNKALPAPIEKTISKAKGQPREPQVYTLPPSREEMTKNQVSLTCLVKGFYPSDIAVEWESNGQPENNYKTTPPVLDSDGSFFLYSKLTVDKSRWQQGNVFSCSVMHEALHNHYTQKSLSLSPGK
Description: SPR pH 7.4.
As for B2, the binding result was “no binding (tested: 1000 nM Fab)”.

As to B3, the binding result was “no binding (tested: 1000 nM Fab)”.

Turning to B4, the binding result is given as “no binding (tested: 1000 nM Fab)”.

In another assay the target is T3, human LAP-TGFB2 Fc fusion (human).
T3 construct: also called human LAP-TGFβ2; LAP-TGFβ isoform 2
T3 sequence (chain, as listed by the source limits assumed): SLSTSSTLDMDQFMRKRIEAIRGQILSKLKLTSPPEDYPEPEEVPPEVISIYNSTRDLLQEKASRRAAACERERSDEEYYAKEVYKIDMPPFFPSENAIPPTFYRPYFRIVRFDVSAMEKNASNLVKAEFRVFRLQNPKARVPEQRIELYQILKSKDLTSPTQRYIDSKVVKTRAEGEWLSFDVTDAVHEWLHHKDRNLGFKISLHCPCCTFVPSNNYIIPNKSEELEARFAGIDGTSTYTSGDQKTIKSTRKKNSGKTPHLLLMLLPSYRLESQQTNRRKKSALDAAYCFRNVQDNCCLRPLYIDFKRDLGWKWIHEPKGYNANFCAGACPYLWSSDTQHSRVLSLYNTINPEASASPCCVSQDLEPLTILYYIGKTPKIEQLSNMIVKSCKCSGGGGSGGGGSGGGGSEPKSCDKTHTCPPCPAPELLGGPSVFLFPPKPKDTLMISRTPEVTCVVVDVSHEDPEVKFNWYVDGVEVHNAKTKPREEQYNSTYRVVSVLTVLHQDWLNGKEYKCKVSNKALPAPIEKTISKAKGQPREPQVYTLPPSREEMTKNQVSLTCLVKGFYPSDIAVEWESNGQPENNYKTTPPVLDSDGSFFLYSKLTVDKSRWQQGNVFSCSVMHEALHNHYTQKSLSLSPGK
Description: SPR pH 7.4.
For B2, the binding result is on record as “no binding (tested: 1000 nM Fab)”.

In the case of B3, the binding result is “no binding (tested: 1000 nM Fab)”.

In the case of B4, the binding result is listed as “no binding (tested: 1000 nM Fab)”.

A further assay concerns the target T1, human LAP-TGFB1 Fc fusion. Description: BLI off-rate screen. As for the experimental part:
The Fab mutants including a positive control, 20E6 Fab, and a negative control Fab (Molecular Innovations, catalog HU-FAB-4510) were diluted to 200 nM in assay buffer and loaded to FAB2G sensors for 180 seconds followed by a one-hour incubation at room temperature in assay buffer to equilibrate the tips. The Fab loaded sensors were assessed for binding with 100 nM human LAP-TGFβ for 180 seconds followed by a 180 second dissociation phase in assay buffer on a ForteBio HTX (software version 9.0.0.66). Non-specific binding to the negative control Fab was subtracted and the binding sensorgrams were aligned to the start of the association phase on the X and Y axis. The Fab binding was fit with the 1:1 binding model, dissociation phase only, with local fitting using ForteBio Data Analysis 9.0 software.
For B1, the koff is 0.0468 s⁻¹ and 0.0381 s⁻¹.

A further assay addresses T1, human LAP-TGFB1 Fc fusion. Briefly: SPR, antigen-Fc captured, Fab analyte. An excerpt:
This Example describes the isoform specificity of the yeast display mutants to bind to human LAP-TGFβ isoforms 1, 2, and 3 using surface plasmon resonance. A Series S CM4 sensor chip (GE Healthcare, catalog BR100534) was immobilized with an anti-human Fc capture antibody following the kit protocol (GE Healthcare, catalog BR100839) on a Biacore T200 instrument with 1× HBS-EP+ (Teknova, catalog H8022). […] Binding specificity experiments between human LAP-TGFβ isoforms 2 and 3 and yeast display mutants were performed in 1× HBS-EP+ with 0.1 mg/mL BSA at 25° C. Approximately 20-40 RU amounts of human LAP-TGFβ2 and 3 were captured to the anti-human Fc surface followed by injection of 1000 nM Fab including a negative control 0 nM Fab. The binding data were double referenced by subtraction of signal from a reference (capture surface only) flow cell and the negative control 0 nM Fab injection. Binding rate constants were determined by fitting the data with a 1:1 binding model (GE Healthcare Biacore T200 Evaluation software 3.0).
Consider B1, for which the “Fold improvement in KD” value came out at 1 fold, the Kd was determined as 79.9 nM, the koff was 0.0769 s⁻¹ and the kon worked out at 960000 M⁻¹ s⁻¹.

The target in the next assay is T1, human LAP-TGFB1 Fc fusion. Description: SPR pH 7.4, antigen-Fc captured, Fab analyte. The source holds these as a separate data set.
Regarding B1, the “Fold improvement in KD” value amounted to 1 fold, the Kd worked out at 58.5 nM, the koff worked out at 0.0769 s⁻¹ and the kon is 1.32e+06 M⁻¹ s⁻¹.

Regarding B2, the “Fold improvement in KD” value worked out at 61 fold; the affinity, expressed as Kd, was 0.961 nM; the koff amounted to 0.00476 s⁻¹; the kon was 4.95e+06 M⁻¹ s⁻¹.

Take B3: the “Fold improvement in KD” value worked out at 197 fold, the Kd was 0.297 nM, the koff turned out to be 0.00198 s⁻¹ and the kon stood at 6.79e+06 M⁻¹ s⁻¹.

B4: the “Fold improvement in KD” value was 2440 fold, the Kd was 0.024 nM, the koff is 0.000186 s⁻¹ and the kon is 7.91e+06 M⁻¹ s⁻¹.

In the next assay the target is T1, human LAP-TGFB1 Fc fusion. Briefly: SPR pH 7.4, antigen captured on Fab 54BLH. In short, it runs like this:
(§1)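 Human LAP-TGFβ1-Fc (~15-25 RU) captured on a low-density 54BLH Fab surface in HBS-EP+, leaving one epitope free for monovalent kinetics. Fabs/mAbs injected in 1:3 series, 6–0.07 nM or 60–0.74 nM plus 0 nM. Double-referenced; rate constants from 1:1 binding fit.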
B2 came in with a Kd of 2.36 nM, a koff of 0.0155 s⁻¹ and a kon of 6.69e+06 M⁻¹ s⁻¹.

As to B3, the Kd amounted to 0.355 nM, the koff came out at 0.00341 s⁻¹ and the kon amounted to 9.61e+06 M⁻¹ s⁻¹.

As to B4, binding was put at a Kd of 0.036 nM, the koff was found to be 0.000348 s⁻¹ and the kon came to 9.65e+06 M⁻¹ s⁻¹.

The next assay addresses T1, human LAP-TGFB1 Fc fusion. Briefly: BLI off-rate screen. The source holds these as a separate data set. The procedure, abridged:
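Tyrosine-substituted CDR Fab variants loaded at 200 nM on FAB2G biosensors, equilibrated 1 h at RT, then exposed to 100 nM human LAP-TGFβ1 for 180 s and dissociated 180 s. Off-rate from 1:1 model fit of dissociation phase only, after negative-control Fab subtraction.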
In the case of B1, the koff was 0.0468 s⁻¹ and 0.0381 s⁻¹.

The target in another assay is T1, human LAP-TGFB1 Fc fusion. Briefly: SPR pH 6.0, antigen captured on Fab 54BLH. In short, it runs like this: as §1
Molecule B2 yielded a Kd of 18.8 nM, a koff of 0.046 s⁻¹ and a kon of 2.44e+06 M⁻¹ s⁻¹.

B3 came in with a Kd of 1.06 nM, a koff of 0.00796 s⁻¹ and a kon of 7.51e+06 M⁻¹ s⁻¹.

As for B4, the Kd was 0.296 nM, the koff amounted to 0.00167 s⁻¹ and the kon is 5.65e+06 M⁻¹ s⁻¹.

The target in the next assay is T2, human LAP-TGFB3 Fc fusion. Briefly: SPR. The protocol: (§2) A Series S CM4 sensor chip (GE Healthcare, catalog BR100534) was immobilized with an anti-human Fc capture antibody following the kit protocol (GE Healthcare, catalog BR100839) on a Biacore T200 instrument with 1× HBS-EP+ (Teknova, catalog H8022). […] Binding specificity between human LAP-TGFβ isoforms 2 and 3 and the tyrosine scanning double mutants were performed in 1× HEPES-buffered saline with EDTA and surfactant (HBS)-EP)+with 0.1 mg/mL BSA at 25° C. […] The binding data were double referenced by subtraction of signal from a reference (capture surface only) flow cell and the negative control 0 nM Fab injection. Binding rate constants were determined by fitting the data with a 1:1 binding model (GE Healthcare Biacore T200 Evaluation software 3.0).
Consider B1, for which the binding result is reported as “no binding (tested: 1000 nM Fab)”.

Take B5: the binding result is on record as “no binding (tested: 1000 nM Fab)”.

Consider B6, for which the binding result is listed as “no binding (tested: 1000 nM Fab)”.

Turning to B7, the binding result is recorded as “no binding (tested: 1000 nM Fab)”.

Another assay concerns the target T3, human LAP-TGFB2 Fc fusion. Description: SPR. As for the experimental part: as §2
B1: the binding result was “no binding (tested: 1000 nM Fab)”.

For the molecule B5, the binding result was “no binding (tested: 1000 nM Fab)”.

For B6, the binding result is on record as “no binding (tested: 1000 nM Fab)”.

B7: the binding result is recorded as “no binding (tested: 1000 nM Fab)”.

For a further assay, the target named is T1, human LAP-TGFB1 Fc fusion. Briefly: SPR, antigen-Fc captured, Fab analyte. The source holds these as a separate data set.
In the case of B1, the “Fold improvement in KD” value was 1 fold, the Kd is 81.2 nM, the koff was found to be 0.103 s⁻¹ and the kon was determined as 1.45e+06 M⁻¹ s⁻¹.

For B5, the “Fold improvement in KD” value turned out to be 7 fold, binding was characterised by a dissociation constant (Kd) of 11.8 nM, the koff worked out at 0.0154 s⁻¹ and the kon came to 910000 M⁻¹ s⁻¹.

B6: the “Fold improvement in KD” value turned out to be 20 fold, the Kd was determined as 4 nM, the koff is 0.0075 s⁻¹ and the kon is 1.89e+06 M⁻¹ s⁻¹.

As to B7, the “Fold improvement in KD” value was found to be 4 fold, binding was characterised by a dissociation constant (Kd) of 20.6 nM, the koff was 0.0134 s⁻¹ and the kon was 650000 M⁻¹ s⁻¹.

In a further assay the target is T1, human LAP-TGFB1 Fc fusion. Briefly: SPR pH 6.0, antigen-Fc captured, Fab analyte. The protocol:
A Series S CM4 sensor chip (Cytiva, catalog BR100534) was immobilized with an anti-human Fc capture antibody following the kit protocol (Cytiva, catalog BR100839) on a Biacore T200 instrument with 1× HBS-EP+ (Teknova, catalog H8022). […] The binding data were double referenced by subtraction of signal from a reference (capture surface only) flow cell and the 0 nM Fab injection. Binding rate constants were determined by fitting the data with a 1:1 binding model (Cytiva Biacore T200 Evaluation software 3.0).
B1 showed a Kd of 103 nM, a koff of 0.096 s⁻¹ and a kon of 934000 M⁻¹ s⁻¹.

For B2, binding was characterised by a dissociation constant (Kd) of 1.59 nM, the koff is 0.0122 s⁻¹ and the kon was found to be 7.63e+06 M⁻¹ s⁻¹.

The molecule B3 returned a Kd of 0.369 nM, a koff of 0.00277 s⁻¹ and a kon of 7.51e+06 M⁻¹ s⁻¹.

For B4, binding was characterised by a dissociation constant (Kd) of 0.067 nM, the koff was found to be 0.000481 s⁻¹ and the kon came to 7.23e+06 M⁻¹ s⁻¹.
